T1: human gp130 expressed endogenously on IMR-32/Stat3-luc cells (human, UniProt P40189 23-918)
T1 sequence: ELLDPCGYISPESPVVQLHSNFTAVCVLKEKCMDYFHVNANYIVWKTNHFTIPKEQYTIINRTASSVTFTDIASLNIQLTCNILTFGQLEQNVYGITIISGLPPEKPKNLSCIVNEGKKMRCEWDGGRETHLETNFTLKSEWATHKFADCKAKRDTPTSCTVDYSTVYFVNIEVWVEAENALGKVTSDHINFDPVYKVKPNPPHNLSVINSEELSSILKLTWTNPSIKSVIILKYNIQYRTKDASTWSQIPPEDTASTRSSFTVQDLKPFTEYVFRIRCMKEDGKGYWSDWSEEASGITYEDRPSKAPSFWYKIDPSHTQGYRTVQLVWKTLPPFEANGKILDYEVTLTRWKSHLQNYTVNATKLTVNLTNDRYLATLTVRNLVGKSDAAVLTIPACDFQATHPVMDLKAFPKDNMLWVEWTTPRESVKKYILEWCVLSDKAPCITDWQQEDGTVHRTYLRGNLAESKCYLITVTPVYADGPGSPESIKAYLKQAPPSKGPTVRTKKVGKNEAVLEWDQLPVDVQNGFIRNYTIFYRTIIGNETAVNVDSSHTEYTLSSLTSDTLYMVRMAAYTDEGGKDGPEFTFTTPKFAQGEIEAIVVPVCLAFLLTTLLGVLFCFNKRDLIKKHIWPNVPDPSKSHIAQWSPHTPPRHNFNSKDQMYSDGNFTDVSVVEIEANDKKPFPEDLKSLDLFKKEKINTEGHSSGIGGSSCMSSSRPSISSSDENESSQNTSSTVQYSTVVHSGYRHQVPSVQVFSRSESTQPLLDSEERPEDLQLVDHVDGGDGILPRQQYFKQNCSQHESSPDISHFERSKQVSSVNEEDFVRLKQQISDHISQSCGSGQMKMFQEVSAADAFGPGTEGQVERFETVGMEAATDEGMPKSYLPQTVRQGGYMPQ

B1: MAb16636 (antibody, V domains shown)
VH: QLQLQESGPGLVKPSETLSLICTVSGGSISSNNYYWGWIRQPPGKGLEWIGNLYGSGSTYYNPSLKSRVTISVDTSKNQFSLKLSFVTAADTAVYHCARWDTNGGAFDIWGQGTMVTVSS
VL: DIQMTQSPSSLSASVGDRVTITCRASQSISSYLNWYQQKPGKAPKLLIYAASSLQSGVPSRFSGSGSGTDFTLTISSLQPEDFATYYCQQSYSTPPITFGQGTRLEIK
notes: hIgG4 isotype control used
B2: MAb16682 (antibody, V domains shown)
VH: EVQLVESGGGLVQPGGSLRLSCAASGFTFSTYWMNWVRQAPGKGLEWVANIKEDGSEKYYVDSVKGRFTISRDNAKNSLYLQMNSLRAEDTAVYYCAREGFGVVTYIWGQGTMVTVSS
VL: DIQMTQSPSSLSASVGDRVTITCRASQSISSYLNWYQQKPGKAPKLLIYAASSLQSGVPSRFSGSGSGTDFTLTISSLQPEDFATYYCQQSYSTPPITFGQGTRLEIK
notes: hIgG4 isotype control used
B3: MAb16618 (antibody, V domains shown)
VH: QVQLQESGPGLVKPSETLSLTCTVSGGSISNYYWTWIRQPPGKGLEWIGHISNSGTTNYNPSLKSRVTISVDTSKNQFSLKLTSVTAADTAVYYCARLPLGIAAVDTDYYYYFGMDVWGQGTTVTVSS
VL: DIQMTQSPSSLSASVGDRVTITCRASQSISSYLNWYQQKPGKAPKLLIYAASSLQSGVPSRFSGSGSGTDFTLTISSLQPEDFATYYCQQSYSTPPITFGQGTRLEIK
notes: hIgG4 isotype control used
B4: MAb16623 (antibody, V domains shown)
VH: EVQLVESGGGLVQPGGSLRLSCAASGLTFSSYEMNWVRQAPGKGLEWVSHISSAGSTKYYADSVKGRFTISRDNAKNSLFLQMNSLRAEDTAIYYCAGYNYAYYYFGVDVWGQGTTVTVSS
VL: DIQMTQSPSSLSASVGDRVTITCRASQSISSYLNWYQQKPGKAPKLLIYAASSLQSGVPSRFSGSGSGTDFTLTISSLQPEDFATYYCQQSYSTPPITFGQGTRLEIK
notes: hIgG4 isotype control used
B5: bsAb21236D (bispecific antibody, V domains shown)
VH 1: QVQLQESGPGLVKPSQTLSLTCTVSGGSISSGGDYWSWIRQLPGKGLEWIGYIYYSGSAYYNPSLKSRGTISIDTSKNQFSLKLTSVTAADTAVYFCVKLRFLEWFLGGWFGPWGQGTLVTVSS
VH 2: QVQLVESGGGLVKPGGSLRLSCAASGFTFSDYYMTWIRQTPGKGLDWVSYISSSGTNKYNADSVKGRFTISRDNAKNSLYLQMNSLRAEDTAVYYCVRDPPWGMDVWGQGTTVTVSS
VL: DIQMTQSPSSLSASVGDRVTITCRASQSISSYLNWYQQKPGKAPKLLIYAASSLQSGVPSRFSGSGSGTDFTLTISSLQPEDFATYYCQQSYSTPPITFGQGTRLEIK
notes: LEPR x GP130 bispecific with common light chain; also called H4H21236D; bsAb21236 (LEPR × GP130)
B6: bsAb21237D (bispecific antibody, V domains shown)
VH 1: EVQLVESGGGLVQPGGSLRLSCAASGFTFSNYGMTWVRQAPGKGLEWVSAITGGGGSTYYSNSVKGRFTISRDNSKNTVYLRMNSVRAEDTAVYYCAKYKWNFVDDWGQGTTVTVSS
VH 2: B5 VH 2
VL: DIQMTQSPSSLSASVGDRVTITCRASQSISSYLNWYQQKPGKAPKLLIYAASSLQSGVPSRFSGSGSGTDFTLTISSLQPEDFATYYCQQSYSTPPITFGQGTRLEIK
notes: LEPR x GP130 bispecific with common light chain; also called H4H21237D; bsAb21237 (LEPR × GP130)
B7: MAb16683 (antibody, V domains shown)
VH: B5 VH 2
VL: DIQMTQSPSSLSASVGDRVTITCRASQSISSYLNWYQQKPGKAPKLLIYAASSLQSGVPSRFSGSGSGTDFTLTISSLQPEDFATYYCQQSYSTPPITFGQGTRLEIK
notes: hIgG4 isotype control used
B8: MAb16659 (antibody, V domains shown)
VH: QVQLVQSGPEVKKPGSSVKVSCKASGGTIDRNEITWVRQAPGQGLEWMGVIIPILGEAHYERKFQGRLTITMDESTSTAYMELSNLRSEDTAVYYCARERAARGYLDYWGQGTLVTVSS
VL: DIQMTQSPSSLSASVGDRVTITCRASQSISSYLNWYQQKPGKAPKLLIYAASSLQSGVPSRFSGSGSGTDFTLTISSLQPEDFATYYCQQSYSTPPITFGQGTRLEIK
notes: hIgG4 isotype control used
B9: MAb16665 (antibody, V domains shown)
VH: QVQLVESGGGVVQPGRSLRLACAASGFTFRSYGMHWVRQAPGKGLEWVAVIWYDGSNKYYTDSVKGRFTISRDNSKNTLYLQMNSLRAEDTAMYYCAIDKWATVTTYLFDYWGQGTLVTVSS
VL: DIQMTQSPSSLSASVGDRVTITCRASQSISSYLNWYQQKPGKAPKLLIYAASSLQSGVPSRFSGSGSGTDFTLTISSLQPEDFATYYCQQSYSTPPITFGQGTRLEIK
notes: hIgG4 isotype control used
B10: MAb16637 (antibody, V domains shown)
VH: QVQLVQSGAEVKKPGASVKVSCKASGYTFTSLGISWVRQAPGQGLEWMGWISAYSGNRDYAQKFQGRVTMTTDTSTSTAYMELRSLRSDDTAVYYCARSLRFDYWGQGTLVTVSS
VL: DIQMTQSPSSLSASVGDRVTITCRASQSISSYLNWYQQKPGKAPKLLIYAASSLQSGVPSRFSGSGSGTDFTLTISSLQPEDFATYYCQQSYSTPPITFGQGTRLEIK
notes: hIgG4 isotype control used
B11: MAb16669 (antibody, V domains shown)
VH: EVQLVESGGGLVQPGGSLRLSCAASGFTFSSYAMNWVRQAPGKGLEWVSAISGSGDSTYYTDSVKGRFTISRDNSKNTLYLQMNTLRAEDTAVYYCAKEEIVMLVGATPGWFDPWGQGTLVTVSS
VL: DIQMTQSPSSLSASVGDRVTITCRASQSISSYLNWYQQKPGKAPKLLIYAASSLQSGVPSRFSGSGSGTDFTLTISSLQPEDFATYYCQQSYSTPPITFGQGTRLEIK
notes: hIgG4 isotype control used
B12: MAb16622 (antibody, V domains shown)
VH: EVQLVESGGGVVRPGGSLRLSCTASGFTFDDYGMSWVRQAPGKGLEWVSGINWNGGRTEYADAVKGRFIISRDNAKNSLYLQMNSLRAEDTALYFCARTELRWDYWGQGTLVTVSS
VL: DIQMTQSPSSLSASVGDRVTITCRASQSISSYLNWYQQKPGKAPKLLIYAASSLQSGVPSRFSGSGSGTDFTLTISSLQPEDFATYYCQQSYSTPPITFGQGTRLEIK
notes: hIgG4 isotype control used
B13: MAb16656 (antibody, V domains shown)
VH: EVQLVESGGGLVQPGRSLRLSCAASGFTLDDFAMHWVRQAPGKGLEWVSGISWNSGNIGYADSVKGRFTISRDNARNSLYLQMNSLRAEDTALYYCTSGYYLYYAMDVWGQGTTVTVSS
VL: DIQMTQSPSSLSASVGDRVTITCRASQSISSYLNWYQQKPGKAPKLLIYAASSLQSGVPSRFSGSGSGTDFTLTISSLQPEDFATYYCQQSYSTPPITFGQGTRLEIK
notes: hIgG4 isotype control used
B14: MAb16614 (antibody, V domains shown)
VH: QVQLVESGGGVVQPGGSLRLSCAASGFTFSTYDIHWVRQAPGKGLEWVAVISFDGSNRNYGDSVKGRFTISRDNSDNTLFLEMNNLRFEDTAVYYCAKEGYGVDFQHWGQGTLVTVSS
VL: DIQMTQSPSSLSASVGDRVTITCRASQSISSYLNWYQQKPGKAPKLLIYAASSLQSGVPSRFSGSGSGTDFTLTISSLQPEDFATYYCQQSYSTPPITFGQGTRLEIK
notes: hIgG4 isotype control used
B15: MAb16664 (antibody, V domains shown)
VH: QVQLVQSGTEVKKPGSSVKVSCKASGGTFSTYPINWVRQAPGQGLEWMGGIIPIFGTASYAQKFQGRVAITTDESTSTAYMELNSLRSEDTAVYYCARERPNWGSNDYWGQGTLVTVSS
VL: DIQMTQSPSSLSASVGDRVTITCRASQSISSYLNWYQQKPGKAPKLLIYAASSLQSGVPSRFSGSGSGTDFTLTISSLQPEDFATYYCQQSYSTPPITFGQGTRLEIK
notes: hIgG4 isotype control used
B16: MAb16676 (antibody, V domains shown)
VH: QVQLVQSGAEVMKPGASVKVSCRASGYTFSSYDINWVRQAPGQGLEWMGWISTATGNTNYPQKVQGRVTMTTDTSTNTAYMELRSLRSDDTAVYYCTREGNSKGWLDPWGQGTLVTVSS
VL: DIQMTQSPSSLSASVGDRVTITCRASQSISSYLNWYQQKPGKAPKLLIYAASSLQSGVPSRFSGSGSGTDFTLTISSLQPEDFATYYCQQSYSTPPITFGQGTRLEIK
notes: hIgG4 isotype control used
B17: MAb16662 (antibody, V domains shown)
VH: EVQLVESGGGLVQPGGSLRLSCTASGFTFSNYAIFWVRQAPGKGLEYVSGISNNGVTKYYADSVRDRFTISRDNSRNTVSIQMDSLRTEDMAVYYCARENWGSDDGFDIWGQGTMVTVSS
VL: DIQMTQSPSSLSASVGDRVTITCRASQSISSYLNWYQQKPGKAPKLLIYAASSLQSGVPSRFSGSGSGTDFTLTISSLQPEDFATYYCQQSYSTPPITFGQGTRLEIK
notes: hIgG4 isotype control used

Biological target: T1, human gp130 expressed endogenously on …
Assay: cell-based or functional assay

Compared with B1, B3 is lower in “% inhibition; CNTF (20 pM)” value: 62% for the first, 33% for the second.

With B4 the “% inhibition; CNTF (20 pM)” value was 22%.

Compared with B1, B3 is lower in “% inhibition; LIF (20 pM)” value: 76% for the first, 40% for the second.

Going from B1 to B2, the “% inhibition; OSM (100 pM)” value falls from 82% to 23%.

With B3 the “% inhibition; OSM (100 pM)” value was 52%.

B1 and B3 cannot be ordered by “IC50 [M]; CNTF (20 pM)” value: greater than 1e-08 M for the first, greater than 1e-07 M for the second.

In the case of B4, the “IC50 [M]; CNTF (20 pM)” value is reported as greater than 1e-07 M.

B1 and B3 cannot be ordered by “IC50 [M]; LIF (20 pM)” value: greater than 1e-08 M for the first, greater than 1e-07 M for the second.

B1 and B2 cannot be ordered by “IC50 [M]; OSM (100 pM)” value: greater than 1e-08 M for the first, greater than 1e-07 M for the second.

With B3 the “IC50 [M]; OSM (100 pM)” value was greater than 5e-08 M.

Biological target: T2, human GP130 extracellular domain expressed with a C-terminal myc-myc-hexahistidine tag (human, UniProt P40189 23-619)
T2 construct: also called hGP130-MMH; hGP130-mmH
Assay: SPR, bsAb captured by anti-hFc, 37C
How it was run: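 Anti-hFc-captured bispecific antibodies received 3-fold serial dilutions of LEPR or GP130 (100 nM–3.7 nM) in HBS-ET, pH 7.4, injected for 4 min with 10 min dissociation at 25 °C or 37 °C. ka and kd came from a 1:1 binding model with mass transport limitation, and KD and t½ were calculated from these rate constants.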

Compared with B5, B6 is higher in “100 nM hGP130-MMH Bound (RU)” value: 12 RU for the first, 19 RU for the second.

Compared with B5, B6 is 1.7-fold lower in Kd: 248 nM for the first, 144 nM for the second. The second binds more tightly here.

Compared with B5, B6 is 1.7-fold lower in koff: 0.0148 s⁻¹ for the first, 0.00879 s⁻¹ for the second.

B5 and B6 are within 1.5-fold of each other in kon: 59700 M⁻¹ s⁻¹ for the first, 61100 M⁻¹ s⁻¹ for the second.

First: B5
Second: B6
The t½ of the first is 1.6-fold lower: 0.8 min for the first, 1.3 min for the second.

Biological target: T1, human gp130 expressed endogenously on …
Assay: FACS, 10 nM Ab pre-bound to 1 uM hGP130.mmh, IMR-32/Stat3-luc cells
Source text: In order to assess cell binding by anti-GP130 antibodies of the invention two cell lines were generated. One cell line generated was HEK293 cells stably over-expressing full length (FL) human gp130 (amino acids 1-918 of accession #P40189 with leucine at position 2 changed to valine, a natural variant) along with a luciferase reporter (Stat3-luciferase, Stat3-luc, SA Bioscience, #CLS-6028L). The cells were sorted twice using flow cytometry for high expression of gp130. It is known hereafter as HEK293/Stat3-luc/gp130-2 X Sort. IMR-32 cells (human Neuroblastoma, ATCC), were also evaluated for cell binding as these cells express gp130 endogenously and were used for bioassays. The cells used for binding were generated to stably express a luciferase reporter (Stat3-luciferase, Stat3-luc, SA Bioscience, #CLS-6028L), and are referred to hereafter as IMR-32/STAT3-Luc cells.
For the FACS analysis, 10 nM of the antibodies were used to stain 0.5×10⁶ cells/well of each cell type at 4° C. in PBS (without calcium and magnesium) containing 2% FBS for 30 minutes. IMR-32/STAT3-luc cells were incubated with 1 mg/mL mouse IgG for 30 minutes at 4° C. to block Fc receptors prior to adding the antibodies. To test whether the anti-gp130 antibody binding is specific for gp130 on the IMR-32 cells, antibodies were added to IMR-32/Stat3-luc cells with or without being pre-bound to 1000 nM of recombinant protein of the ecto-domain of human gp130 fused to myc-myc-his tag (hgp130.mmh) for 30 minutes at 25° C. […] Cells were fixed using BD CytoFix™ (Becton Dickinson, #554655) and analyzed on an IQue® (Intellicyt®) Flow Cytometer. Unstained and secondary antibody alone controls were also tested for all cell lines. The results were analyzed using ForeCyt® (IntelliCyt®) software to determine the geometric means of fluorescence for viable cells.

B1 and B7 are the same in “MFI - Normalized to Unstained Control” value: 7 ratio for the first, 7 ratio for the second.

Compared with B8, B9 is lower in “MFI - Normalized to Unstained Control” value: 8 ratio for the first, 6 ratio for the second.

Going from B10 to B2, the “MFI - Normalized to Unstained Control” value rises from 7 ratio to 8 ratio.

Compared with B3, B4 is lower in “MFI - Normalized to Unstained Control” value: 8 ratio for the first, 7 ratio for the second.

Compared with B11, B12 is higher in “MFI - Normalized to Unstained Control” value: 5 ratio for the first, 7 ratio for the second.

Compared with B13, B14 is lower in “MFI - Normalized to Unstained Control” value: 7 ratio for the first, 6 ratio for the second.

B15 and B16 are the same in “MFI - Normalized to Unstained Control” value: 8 ratio for the first, 8 ratio for the second.

B17 was tested, and the “MFI - Normalized to Unstained Control” value was 6 ratio.

— patent US20240158497A1 (published 2024)
